Experimental data as given in US20220348651A1, “ENTPD2 ANTIBODIES, COMBINATION THERAPIES, AND METHODS OF USING THE ANTIBODIES AND COMBINATION THERAPIES” (Novartis AG, priority 2019, published 2022).

T1: human ENTPD2 (Homo sapiens, UniProt Q9Y5L3)
T1 construct: residues 29-462 of human or cyno ENTPD2 were cloned into expression vector; GP67 signal peptide (N); made in house; host or cells: High Five (Trichoplusia ni) insect cells, baculovirus
T1 sequence (Q9Y5L3 29-462): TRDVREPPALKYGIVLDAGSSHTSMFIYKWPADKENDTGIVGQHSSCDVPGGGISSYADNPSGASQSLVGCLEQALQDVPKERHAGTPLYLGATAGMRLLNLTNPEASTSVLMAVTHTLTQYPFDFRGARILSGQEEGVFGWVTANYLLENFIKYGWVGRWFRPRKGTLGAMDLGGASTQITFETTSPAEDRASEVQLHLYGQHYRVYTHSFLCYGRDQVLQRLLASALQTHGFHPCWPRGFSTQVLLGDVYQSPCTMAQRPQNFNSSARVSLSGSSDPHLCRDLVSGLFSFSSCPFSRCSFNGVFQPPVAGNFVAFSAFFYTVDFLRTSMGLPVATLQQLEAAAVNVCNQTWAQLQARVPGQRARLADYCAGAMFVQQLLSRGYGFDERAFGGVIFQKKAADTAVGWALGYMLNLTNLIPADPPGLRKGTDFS

T2: mouse ENTPD2 (Mus musculus, UniProt O55026)
T2 construct: expressed in transfected cells; host or cells: NIH/3T3 (retroviral transduction)
T2 sequence (O55026 1-495): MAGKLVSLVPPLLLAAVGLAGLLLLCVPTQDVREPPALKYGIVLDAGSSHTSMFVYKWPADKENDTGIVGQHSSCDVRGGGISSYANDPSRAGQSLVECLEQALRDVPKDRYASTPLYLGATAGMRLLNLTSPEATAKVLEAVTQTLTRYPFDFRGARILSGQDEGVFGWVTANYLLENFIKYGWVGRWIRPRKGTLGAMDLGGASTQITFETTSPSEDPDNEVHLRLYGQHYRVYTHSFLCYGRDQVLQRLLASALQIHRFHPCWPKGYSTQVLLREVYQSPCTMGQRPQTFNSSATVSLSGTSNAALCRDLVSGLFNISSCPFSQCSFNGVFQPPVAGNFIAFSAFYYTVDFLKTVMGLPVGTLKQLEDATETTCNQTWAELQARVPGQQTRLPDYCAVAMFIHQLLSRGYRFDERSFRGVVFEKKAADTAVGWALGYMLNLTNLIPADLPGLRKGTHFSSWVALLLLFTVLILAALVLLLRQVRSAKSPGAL

B1: mAb7: humanized anti-human ENTPD2 antibody from mAb17; VH SEQ ID NO: 25, VL SEQ ID NO: 78 (antibody, V domains shown)
VH: QVQLVQSGAEVVKPGASVKISCKASGYTFTDYNMDWVKQAPGQRLEWIGDINPKYDISTYNQQFKGKATITVDKSASTAYMELSSLRSEDTAVYYCARRGFFLYYGINYYYFDVWGQGTLVTVSS
VL: EIVLTQSPATLSASPGEEITLSCSASSSVSYIHWYQQKPGQAPRLLIYSTSNLASGIPARFSGSGSGTFYTLTISSVEPEDAAVYYCHQWSSYPWTFGGGTKLEIK
B2: mAb13: anti-mouse ENTPD2 antibody; HC SEQ ID NO: 193, LC SEQ ID NO: 204 (antibody)
heavy: QVQLVQSGAELKQPGQSVKISCKASGYTFTHYGMNWVKQAPGQGLKWMGWINTDTGNPTYADDFKGRFVFSLDTSVSTAYLQISNLKNEDTATYYCVRYGTLYSGYGFFFDSWGQGTLVTVSSAKTTAPSVYPLAPVCGDTTGSSVTLGCLVKGYFPEPVTLTWNSGSLSSGVHTFPAVLQSDLYTLSSSVTVTSSTWPSQSITCNVAHPASSTKVDKKIEPRGPTIKPCPPCKCPAPNLLGGPSVFIFPPKIKDVLMISLSPIVTCVVVDVSEDDPDVQISWFVNNVEVHTAQTQTHREDYNSTLRVVSALPIQHQDWMSGKEFKCKVNNKDLPAPIERTISKPKGSVRAPQVYVLPPPEEEMTKKQVTLTCMVTDFMPEDIYVEWTNNGKTELNYKNTEPVLDSDGSYFMYSKLRVEKKNWVERNSYSCSVVHEGLHNHHTTKSFSRTPGK
light: DIMMTQSPSSLSVSAGEKATITCKSSQSLFNSNTNKNYLNWYLQKPGQSPKLLFYYASTRHTGVPDRFIGSGSGTDFTLTITSVQDEDLADYYCQQWYSYPWTFGPGTKLEIKRADAAPTVSIFPPSSEQLTSGGASVVCFLNNFYPKDINVKWKIDGSERQNGVLNSWTDQDSKDSTYSMSSTLTLTKDEYERHNSYTCEATHKTSTSPIVKSFNRNEC

How the values were obtained:
human ENTPD2 = molecular target: T1, human ENTPD2; assay: Biacore (SPR) affinity to human ENTPD2 ECD; format: binding; conditions: 25° C.
Protocol: Biacore Screening: Affinity was measured by determining the kinetic rate constants using surface plasmon resonance (SPR) on a Biacore T200 or T100 with the T200 sensitivity upgrade instrument (Biacore, GE Healthcare). Antibodies were captured on CM5 sensor chips (Biacore, GE Healthcare) prepared with a mouse anti-human IgG Fc antibody (ThermoFisher catalogue #05-4200) amine coupled to the surface. […] ENTPD2 analytes were allowed to associate for 180 s and dissociate for up to 1800 s depending on the off-rate of the antibody at a flow rate of 30 μL/min. The running buffer was PBS pH 7.2 (prepared from a Corning 10X stock, cat#46-013-CM)+0.05% Tween 20. Regeneration was accomplished with 30 s injections of 3 or 4 M MgCl2 to remove all the captured antibody and remaining complex from the surface, after which fresh antibody was captured. The raw data were analyzed using Biacore T200 Evaluation Software version 1.0 and fit to a 1:1 binding model, with all parameters set to fit globally except for RI, which was set to fit locally.

mouse ENTPD2 = molecular target: T2, mouse ENTPD2; assay: Mouse ENTPD2 NIH/3T3 cell-based functional assay
Description: Biochemical and cell-based functional assays were developed in-house to understand functional impact of anti-ENTPD2 Abs against purified extracellular domain of ENTPD2 (residues 29-462), as well as against the fully intact protein in the context of the native cell-based conformation. ENTPD2 hydrolyzes ATP to ADP, which can subsequently be detected using the HTRF Transcreener ADP2 TR-FRET Red Assay (BellBrook Labs, Madison, Wis.) where ENTPD2-produced ADP would compete with the ADP Tracer for binding to the anti-ADP-Tb antibody. The resulting signal is inversely proportional to the concentration of ADP in the sample.
To establish cell-based functional assays, human/cyno/mouse ENTPD2-engineered NIH/3T3 cells or RKO (ATCC, Manassa Va.) colorectal cancer cells with endogenous ENTPD2 expression were plated overnight at 150, 200 and 250 cells per well for NIH/3T3 mouse, cyno and human ENTPD2 lines, respectively, or 1000 cells per well for RKO in 384-well tissue culture plate, in 30 μl per well (Perkin Elmer, Waltham, Mass.). The following day cells were pre-incubated with Anti-ENTPD2 Abs in dose response for 60 min at 37° C., 5% CO2 (10 μl of 5× antibody dose per well), and subsequently stimulated with a final concentration of 10 μM ATP (Teknova, Hollister, Calif.) for 20 minutes at room temperature (10 μl of 5× (50 μM) ATP per well). Reactions were quenched with 40 mM EDTA/40 mM EGTA, 25 μl per well, and 15 μl of quenched media was transferred to low volume Proxiplates (PerkinElmer, Waltham, Mass.) for ADP detection. ADP production was detected with the Transcreener ADP2 TR-FRET Red Assay (BellBrook Labs, Madison, Wis.) with a final concentration of 4 nM ADP2 antibody and 13.4 nM of ADP Tracer in wells (4× solution was prepared and 5 μL of “Detection Reagent Mix” was added to the quenched conditioned media). Plates were incubated with detection reagents for 1 hour at room temperature prior to reading plates in HTRF mode.
HTRF signal (Emission at 620 nm and 665 nm) was assessed in both assays using the Envision plate reader in HTRF mode (Perkin Elmer, Waltham, Mass.). HTRF ratio was determined using the following formula: HTRF ratio=R=Emission at 665 nm/Emission at 620 nm×10,000. Subsequently % Residual Activity and % Inhibition were determined as follows:
Where R0% is the HTRF ratio of the negative control (0% enzyme activity), and R100% is the HTRF ratio of the positive control (100% enzyme activity). Data were analyzed in Microsoft Excel and graphed using GraphPad's Prism 7.0 software and IC50 values were obtained using non-linear regression, log (agonist) vs. response-variable slope (four parameters) analysis.
Anti-ENTPD2 mAb13 was identified as a mouse ENTPD2 selective Ab (FACS EC50 3-4 nM) with no binding to human or cyno ENTPD2.

Molecule	Kd (human ENTPD2)	ka (human ENTPD2)	kd (human ENTPD2)	maximum target inhibition (mouse ENTPD2 inhibition) (mouse ENTPD2; NIH3T3-mouse ENTPD2 engineered cell line)	% Inhibition at 100 nM (±Std Err) (mouse ENTPD2; mouse ENTPD2 NIH/3T3 cells, 100 nM)
B1	0.9 nM	210000 M⁻¹ s⁻¹	0.00019 s⁻¹	–	–
B2	–	–	–	44%	44 ± 7.3%
